The source of these data is patent US20200385465A1 (SHANGHAI NOVAMAB BIOPHARMACEUTICALS, published 2020).

Test [1] has as its target T1, human full-length CD47 protein (human, UniProt Q08722 19-323).
T1 construct: whole, on cells; also called CD47 stably transferred cells; CD47 on the surface of erythrocyte
Briefly: flow cytometry blocking assay, antibody together with 5 ug hSIRPa (ECD)-Fc-Biotin on hCD47 stable cells, SA-PE detection.

Test [2] has as its target T1, human full-length CD47 protein. Briefly: flow cytometry blocking assay, antibody together with hSIRPa (ECD)-Fc-Biotin on CD47 stable cells, SA-PE detection. In general terms: A flow cytometer gives signals particle by particle.
In test [3] the target is T2, CD47 (mouse), coated antigen protein (mouse, UniProt Q61735 19-140, limits assumed).
T2 construct: also called mouse CD47; murine-derived CD47
T2 sequence (looked up): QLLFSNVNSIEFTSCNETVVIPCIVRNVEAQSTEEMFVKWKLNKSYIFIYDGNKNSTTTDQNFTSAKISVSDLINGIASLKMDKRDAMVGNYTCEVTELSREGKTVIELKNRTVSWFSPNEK
Briefly: ELISA, coated antigen, anti-HA and alkaline phosphatase detection.
Description: (§1) The specificity of the single domain antibody was determined based on the absorption value.

Test [4] addresses T3, CD47 (rat), coated antigen protein (rat, UniProt P97829 19-140, limits assumed).
T3 construct: also called rat CD47; murine-derived CD47
T3 sequence (looked up): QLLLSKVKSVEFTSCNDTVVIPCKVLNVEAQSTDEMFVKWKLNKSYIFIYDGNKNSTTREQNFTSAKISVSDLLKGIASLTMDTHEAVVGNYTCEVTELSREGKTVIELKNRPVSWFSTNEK
Described as above.
Description: as §1

The target of test [5] is T1, human full-length CD47 protein. Briefly: competition flow cytometry on CD47 stably transfected cells, antibody titrated against 5 µg hSIRPa (ECD)-Fc-Biotin.
Description: 100 uL was added in each sample, and a negative control (hIgG4) was set at the same time. […] (2) The cells were washed twice with PBS, SA-PE of eBioscience was added. It was incubated for 20 min at 4° C., and the cells were washed twice with PBS and then detected by flow cytometry (BD FACS Calibur), using graphpad prism 6 software for data processing.

By IC50 is commonly meant the midpoint of a concentration-inhibition curve. Low readings indicate greater potency in that assay, high ones weaker potency in that assay.

negative control antibody: the percent of cells positive for SIRPa-biotin (quadrant Q2) in the presence of the antibody at 1ug/ml in test [1] was determined as 97.2%. Also, in test [2], the percent of cells positive for SIRPa-biotin (quadrant Q2) in the presence of the antibody came to 97.3%.

B1: humanized CD47 single domain antibody (Nb1902) expressed from E. coli vector pMECS (VHH)
VHH: QVQLQESGGGLVQPGGSLRLSCAASGYAYTSDCMGWFRQTPGKGLEGVALIYTPGNSTNYADSVKGRFTISQDNSKSTVYLQMNSLRAEDTAMYYCAARRGACSLRLPFFYWGQGTLVTVSS
notes: also called humanized single domain antibody; not shown: C-terminal tag stretch from the pMECS vector (the HA tag used for detection and any other vector-encoded tag)
As for B1, the binding result in test [3] and in test [4] was “no binding” in each case.

B2: control antibody B6H12 (antibody)
chain: EVQLVESGGDLVKPGGSLKLSCAASGFTFSGYGMSWVRQTPDKRLEWVATITSGGTYTYYPDSVKGRFTISRDNAKNTLYLQIDSLKSEDTAIYFCARSLAGNAMDYWGQGTSVTVSSGGGGSGGGGSGGGGSDIVMTQSPATLSVTPGDRVSLSCRASQTISDYLHWYQQKSHESPRLLIKFASQSISGIPSRFSGSGSGSDFTLSINSVEPEDVGVYYCQNGHGFPRTFGGGTKLEIK
For the molecule B2, the IC50 in test [5] worked out at 12.3 µg/mL.
